The text below walks through data of patent publication US20240294593A1 (Genentech, published 2024).

Changes are numbered by the printed parent chain. Names and notes keep the numbering of the source.

First the molecules themselves.
B1: H1_L1.89 (antibody, V domains shown)
VH: EVQLVESGGGLVQPGGSLRLSCAASGFTFSSFGMHWVRQAPGKGLEWVSYISSGSSIIYYADSVKGRFTISRDNAKNSLYLQMNSLRAEDTAVYYCARGGRLVWSPDYWGQGTLVTVSS
VL: DIVMTQSPDSLAVSLGERATINCKSSQSLLNSGNQKNYLTWYQQKPGQPPKLLIYWASTRGSGVPDRFTGSGSGTDFTLTISSLQAEDVAVYYCQNDYSYPFTFGSGTKLEIKR
notes: also called VL-E61G; Kabat 55
B2: H1.89_L1 (antibody, V domains shown)
VH: B1 VH with I58V
VL: B1 VL with G61E
notes: also called VH-I62V; Kabat 57
B3: H1.92_L1 (antibody, V domains shown)
VH: B1 VH with I58T
VL: B1 VL with G61E
notes: also called VH-I62T; Kabat 57
B4: H1.79_L1 (antibody, V domains shown)
VH: B1 VH with S56Y
VL: B1 VL with G61E
notes: also called VH-S60Y; Kabat 55
B5: H1.85_L1 (antibody, V domains shown)
VH: B1 VH with I57A
VL: B1 VL with G61E
notes: also called VH-I61A; Kabat 56
B6: H1.91_L1 (antibody, V domains shown)
VH: B1 VH with I58F
VL: B1 VL with G61E
notes: also called VH-I62F; Kabat 57
B7: H1.90_L1 (antibody, V domains shown)
VH: B1 VH with I58L
VL: B1 VL with G61E
notes: also called VH-I62L; Kabat 57
B8: H1.80_L1 (antibody, V domains shown)
VH: B1 VH with I57V
VL: B1 VL with G61E
notes: also called VH-I61V; Kabat 56
B9: H1.151_L1 (antibody, V domains shown)
VH: B1 VH with W104F
VL: B1 VL with G61E
notes: also called VH-W112F; Kabat 100
B10: H1.163_L1 (antibody, V domains shown)
VH: B1 VH with S105G
VL: B1 VL with G61E
notes: also called VH-S113G; Kabat 100a
B11: H1_L1.8 (antibody, V domains shown)
VH: B1 VH
VL: B1 VL with N31Y, G61E
notes: also called VL-N31Y; Kabat 27d
B12: H1.153_L1 (antibody, V domains shown)
VH: B1 VH with W104Y
VL: B1 VL with G61E
notes: also called VH-W112Y; Kabat 100; copies: 2 + 2
B13: H1_L1.10 (antibody, V domains shown)
VH: B1 VH
VL: B1 VL with S32A, G61E
notes: also called VL-S32A; Kabat 27e
B14: H1.150_L1 (antibody, V domains shown)
VH: B1 VH with V103K
VL: B1 VL with G61E
notes: also called VH-V111K; Kabat 99
B15: H1_L1.12 (antibody, V domains shown)
VH: B1 VH
VL: B1 VL with S32V, G61E
notes: also called VL-S32V; Kabat 27e
B16: H1.160_L1 (antibody, V domains shown)
VH: B1 VH with S105T
VL: B1 VL with G61E
notes: also called VH-S113T; Kabat 100a
B17: H1.166_L1 (antibody, V domains shown)
VH: B1 VH with S105D
VL: B1 VL with G61E
notes: also called VH-S113D; Kabat 100a
B18: H1_L1.13 (antibody, V domains shown)
VH: B1 VH
VL: B1 VL with S32H, G61E
notes: also called VL-S32H; Kabat 27e
B19: H1.164_L1 (antibody, V domains shown)
VH: B1 VH with S105V
VL: B1 VL with G61E
notes: also called VH-S113V; Kabat 100a
B20: H1.161_L1 (antibody, V domains shown)
VH: B1 VH with S105A
VL: B1 VL with G61E
notes: also called VH-S113A; Kabat 100a
B21: H1.147_L1 (antibody, V domains shown)
VH: B1 VH with V103Q
VL: B1 VL with G61E
notes: also called VH-V111Q; Kabat 99
B22: H1_L1.2 (antibody, V domains shown)
VH: B1 VH
VL: B1 VL with N31E, G61E
notes: also called VL-N31E; Kabat 27d
B23: H1.148_L1 (antibody, V domains shown)
VH: B1 VH with V103W
VL: B1 VL with G61E
notes: also called VH-V111W; Kabat 99
B24: H1_L1.5 (antibody, V domains shown)
VH: B1 VH
VL: B1 VL with N31L, G61E
notes: also called VL-N31L; Kabat 27d
B25: H1.156_L1 (antibody, V domains shown)
VH: B1 VH with W104Q
VL: B1 VL with G61E
notes: also called VH-W112Q; Kabat 100; copies: 2 + 2
B26: H1_L1.14 (antibody, V domains shown)
VH: B1 VH
VL: B1 VL with S32K, G61E
notes: also called VL-S32K; Kabat 27e
B27: H1.157_L1 (antibody, V domains shown)
VH: B1 VH with W104S
VL: B1 VL with G61E
notes: also called VH-W112S; Kabat 100; copies: 2 + 2
B28: H1.155_L1 (antibody, V domains shown)
VH: B1 VH with W104H
VL: B1 VL with G61E
notes: also called VH-W112H; Kabat 100; copies: 2 + 2
B29: H1_L1.7 (antibody, V domains shown)
VH: B1 VH
VL: B1 VL with N31G, G61E
notes: also called VL-N31G; Kabat 27d
B30: H1.158_L1 (antibody, V domains shown)
VH: B1 VH with W104E
VL: B1 VL with G61E
notes: also called VH-W112E; Kabat 100; copies: 2 + 2
B31: H1.149_L1 (antibody, V domains shown)
VH: B1 VH with V103D
VL: B1 VL with G61E
notes: also called VH-V111D; Kabat 99
B32: H1_L1.6 (antibody, V domains shown)
VH: B1 VH
VL: B1 VL with N31T, G61E
notes: also called VL-N31T; Kabat 27d
B33: H1_L1.11 (antibody, V domains shown)
VH: B1 VH
VL: B1 VL with S32Q, G61E
notes: also called VL-S32Q; Kabat 27e
B34: H1_L1.9 (antibody, V domains shown)
VH: B1 VH
VL: B1 VL with S32T, G61E
notes: also called VL-S32T; Kabat 27e

The target in one assay is T1, human PD-1-His (human, UniProt Q15116 25-167, limits assumed).
T1 construct: Antigen of the Octet assays; not shown: His tag
T1 sequence (Q15116 25-167 limits assumed): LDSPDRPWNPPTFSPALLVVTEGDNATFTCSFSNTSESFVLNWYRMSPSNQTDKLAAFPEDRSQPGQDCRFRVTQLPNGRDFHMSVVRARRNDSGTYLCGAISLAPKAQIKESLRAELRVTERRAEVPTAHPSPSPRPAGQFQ
The assay is described as follows: Octet [D00120 Figure 65H]. From the text:
In particular, anti-human IgG-Fc (AHC) biosensors were used to capture the test articles and dipped into multiple concentrations of PD-1.
(In general: In BLI a coated tip is dipped into the sample, and binding shifts an interference pattern.)
B1: the equilibrium dissociation constant (Kd) is 0.0439 µM, the koff amounted to 0.00403 s⁻¹ and the kon is 91900 M⁻¹ s⁻¹.

The target of the next assay is T1, human PD-1-His. Briefly: Octet.
B2 came in with an equilibrium dissociation constant (Kd) of 0.0432 µM, a koff of 0.00669 s⁻¹ and a kon of 155000 M⁻¹ s⁻¹.
B3 came in with a Kd of 0.0478 µM, a koff of 0.00851 s⁻¹ and an association rate constant (kon) of 178000 M⁻¹ s⁻¹.
For the molecule B4, the affinity, expressed as Kd, was 0.0434 µM; the dissociation rate constant (koff) was 0.00686 s⁻¹; the kon was 158000 M⁻¹ s⁻¹.
In turn, B5 came in with an equilibrium dissociation constant (Kd) of 0.132 µM, a dissociation rate constant (koff) of 0.0618 s⁻¹ and an on-rate constant (kon) of 467000 M⁻¹ s⁻¹.
In the case of B6, binding was characterised by a dissociation constant (Kd) of 0.061 µM, the off-rate (koff) turned out to be 0.00917 s⁻¹ and the kon came to 150000 M⁻¹ s⁻¹.
Molecule B7 registered a Kd of 0.0515 µM, a koff of 0.00727 s⁻¹ and a kon of 141000 M⁻¹ s⁻¹.
For the molecule B8, the dissociation constant Kd amounted to 0.207 µM, the dissociation rate constant (koff) came out at 0.0466 s⁻¹ and the kon is 226000 M⁻¹ s⁻¹.

The target in a further assay is T1, human PD-1-His. The assay is described as follows: Octet. This is another data set of the same source.
Molecule B9 returned a dissociation constant Kd of 0.309 µM, a koff of 0.087 s⁻¹ and a kon of 282000 M⁻¹ s⁻¹.
The corresponding values for B10 are 0.092 µM, 0.0113 s⁻¹ and 123000 M⁻¹ s⁻¹.
Taken in the same sequence, the figures for B11 were 0.307 µM, 0.0247 s⁻¹ and 80600 M⁻¹ s⁻¹.
On to B12, for which the binding result is on record as “no binding”.
As to B13, the Kd was 0.0829 µM, the koff was 0.00755 s⁻¹ and the association rate constant (kon) worked out at 91000 M⁻¹ s⁻¹.
For the molecule B14, binding was put at a Kd of 0.06 µM, the koff worked out at 0.00524 s⁻¹ and the kon came out at 87200 M⁻¹ s⁻¹.
In turn, B15 gave a Kd of 0.111 µM, an off-rate (koff) of 0.0115 s⁻¹ and an on-rate (kon) of 104000 M⁻¹ s⁻¹.
B16 came in with an equilibrium dissociation constant (Kd) of 0.0907 µM, a koff of 0.00764 s⁻¹ and a kon of 84300 M⁻¹ s⁻¹.
Turning to B17, the Kd stood at 0.189 µM, the off-rate constant (koff) stood at 0.0457 s⁻¹ and the on-rate constant (kon) turned out to be 242000 M⁻¹ s⁻¹.
Molecule B18 showed a dissociation constant Kd of 0.103 µM, a koff of 0.0106 s⁻¹ and a kon of 102000 M⁻¹ s⁻¹.
B19 returned a dissociation constant (Kd) of 0.28 µM, a koff of 0.0166 s⁻¹ and a kon of 59400 M⁻¹ s⁻¹.
The corresponding values for B20 are 0.0475 µM, 0.00755 s⁻¹ and 159000 M⁻¹ s⁻¹.
The molecule B21 yielded a Kd of 0.0923 µM, an off-rate (koff) of 0.013 s⁻¹ and a kon of 140000 M⁻¹ s⁻¹.
With B22, the Kd was 0.152 µM, the koff amounted to 0.0228 s⁻¹ and the kon worked out at 150000 M⁻¹ s⁻¹.
B23 returned a dissociation constant Kd of 0.0775 µM, an off-rate (koff) of 0.0112 s⁻¹ and a kon of 144000 M⁻¹ s⁻¹.
Molecule B24 returned a dissociation constant (Kd) of 0.0329 µM, an off-rate (koff) of 0.00569 s⁻¹ and an on-rate (kon) of 173000 M⁻¹ s⁻¹.
As for B25, the binding result is recorded as “no binding”.
For B26, the Kd came out at 0.17 µM, the dissociation rate constant (koff) was 0.0141 s⁻¹ and the kon stood at 83200 M⁻¹ s⁻¹.
For the molecule B27, the binding result is “no binding”.
For the molecule B28, the binding result is recorded as “no binding”.
In the case of B29, the Kd is 0.0846 µM, the dissociation rate constant (koff) was 0.00875 s⁻¹ and the kon was found to be 103000 M⁻¹ s⁻¹.
B30: the binding result is “no binding”.
B31 registered a Kd of 0.116 µM, a koff of 0.0116 s⁻¹ and a kon of 99700 M⁻¹ s⁻¹.
Take B32: the affinity, expressed as Kd, was 0.0646 µM; the off-rate (koff) came to 0.00777 s⁻¹; the on-rate (kon) amounted to 120000 M⁻¹ s⁻¹.
B33 showed a Kd of 0.103 µM, a koff of 0.00997 s⁻¹ and a kon of 96500 M⁻¹ s⁻¹.
With B34, the Kd came to 0.0467 µM, the koff stood at 0.005 s⁻¹ and the kon is 107000 M⁻¹ s⁻¹.

What is called Kd is the free concentration of one partner at which half of the binding sites on the other are occupied at equilibrium, for simple one-to-one binding. Read a high Kd as a looser complex. A word on the koff: it is the rate constant with which the complex falls apart. Higher therefore signals a short-lived complex. In general, kon refers to a measure of how fast the partners come together. Lower therefore signals slower complex formation.
